Drawing on paper PMC3167755, this text covers binding for one sequence.

The target in the data set is T1, Fur-His6 (CjFur-His6) (Campylobacter jejuni 81-176) (UniProt P0C631).
T1 sequence: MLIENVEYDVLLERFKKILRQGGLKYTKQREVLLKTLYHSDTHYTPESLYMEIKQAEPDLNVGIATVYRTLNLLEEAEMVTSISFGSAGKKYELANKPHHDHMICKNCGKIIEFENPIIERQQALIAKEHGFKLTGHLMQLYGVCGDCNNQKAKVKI
Put plainly: EMSA. The following applies: 10 mM Tris-HCl pH 7.5, 1 mM MgCl2, 0.5 mM DTT, 50 mM KCl, 100 uM MnCl2 (omitted where stated), 1 ug poly(dI-dC), 50 ug BSA, 5% glycerol, 20 ul, ~28 fmol DNA ….

“GCTAATGCAAAACTTGAATAAAATACAAGAGCTAAAACAAATTTGCAAAAAAATTTACGCATATTATATCCTTGGTTAAATAAAATTTTCAAAGATAATTTTATTTAAAAAAATAAATAAGCCCAAATTTATTTTTGGGCTTATTGTTATTTTTTAGGATTGAATGCTTGATCAACACTAAAAGGCATTGCTTGATAACCCGTGCCTGAACCGCTAAATTGAATTTGAACCGAAGGCTCCTTAGCACCCCAGTTAAATTCATCAATTTCAGGTTTTGGCTCTCCAAGACTTACACCT (double strand) [dsbA1 promoter region]”: the binding result is “no binding”.
